From US20070265201A1, “INHIBITORS OF IN[…] TRA[…] FROM HCMV PROTEIN IE2” (priority 2005, published 2007)

Target: Spi-1 transcription factor, expressed in cells
Test: cell-based or functional assay

IE2 291-364 expressed in cells from pCDNA 3.1/V5-His IE2 291-364 (peptide)
inhibition of IL-1β promoter luciferase reporter in LPS-treated RAW 264.7 cells: 50% | maximum inhibition of the 3.8 kbp complete IL1B regulatory region luciferase reporter in LPS-treated RAW264.7 cells: 50 to 75%
